We go through three substances from paper PMC8373112.

The data set has as its system RqcH-HTF wild-type (Bacillus subtilis). Briefly: EMSA. The note with it: native tRNA modifications, deacylated; EMSA: HEPES:Polymix buffer, 5 mM Mg2+, 0.1 uM tRNA, 1 uM mRNA(MVF) competitor, 37 C 5 min, gel at 4 C; pull-down: HEPES:Polymix pH 7.5, 1 mM DTT, 5 mM MgOAc ….
For the substance tRNALys, the K half was 310 nM.
Then tRNAAla, with 190 nM.
Then tRNAVal, with 390 nM.
